Results from the DeepSol protein solubility set.

Test: soluble on expression in E. coli; label from the status in PepcDB or PDB records

| Sequence | soluble on expression in E. coli |
| --- | --- |
| MGSDKIHHHHHHMAVQDLLSQDEIDALLHGVDDGMVQTDIASEPGSVKSYDLTSQDRIVRGRMPTLEMINERFARYTRISMFNLLRRSADVAVGGVQVMKFGEYVHSLYVPTSLNLAKIKPLRGTALFILDAKLVFKLVDNFFGGDGRHAKIEGREFTPTELRVVRMVLDQAFIDLKEAWQAIMEVNFEYINSEVNPAMANIVGPSEAVVISTFHIELDGGGGDLHVTMPYSMIEPIREMLDAGFQSDLDDQDERWVNALKEDVLDVNVPLTTTIAQRQLPLRDILHMRPGDVIPVELSDTLVLRANGVPSFKVKLGSHKGKMALQVIEPIARR | not soluble |
| MGSDKIHHHHHHMAWHKLGRVYCADGFADWAQHSFMTPVPVQMSADVIRLYGGMRDDAGISRIGWVDLDAHNPLRVIAVCDAPALDLGEPGMFDDNGVILGDVIRTSEAELRMYYVGFQLVEKAKFLAFTGVAISDASGTRFDRVFPTPVLDRAPEALFINALHSIAQTETGFRAWISCGQRWQDINGRIYPQYNCWTVPSEDGLHFDMRDAVKIMDVNEAEYRIGRPRANRLADGSFELRVTSDTFDKHYSSHLAHSKDGIVFQRSDEVELPRGAPGDWDAEMTCYPARIDTPTGRSYLFYNGNNMGETGVGVAEWQAEA | not soluble |
| MGSDKIHHHHHHMAWTSAQGATAAMTVVDGVTGLPIAGATVVSAGAERVTANDGTFMMPMDGPDGGIAMTVRAPGYARLETVANGTTPRAIALAPLLAEEAARMGFDEVQFDYLRFPDAPGLRFSETNTSARRVAAITGFLSAARDRLRHYNIYLSADIFGYVCWNLDDTAIGQQLETLVVLSTTFHRCCIRPVSPSGWRRSGATSHPSRRGLP | not soluble |
| MGSDKIHHHHHHMAYEQFAYVYDELMQDVPYPEWVAWVLEQVEPGKRIADIGCGTGTATLLLADHYEVTGVDLSEEMLEIAQEKAMETNRHVDFWVQDMRELELPEPVDAITILCDSLNYLQTEADVKQTFDSAARLLTDGGKLLFDVHSPYKMETLFNGKTYATHAEQSSYIWFADPGEEPLSVVHELTFFIEGEDGRYDRVDETHHQRTYPPEQYITWLREAGFRVCAVTGDFKSDAPTETAERIFFVAEKI | not soluble |
| MGSDKIHHHHHHMCQHSIANIDINKDYDESLGTEEVHYQSFSRMAAFFGRDMQAHRHDRYFQMHYLDTGQIELQLDDHRYSVQAPLFVITPPSVPHAFITESDSDGHVLTVHEELIWPLLEVLYPGTRETFGLPGICLSLADKPDELAALAHYWQLIRRESTAQLPGREHTLALLAQAVFTLLLRNAKLDDHAASGMRGELKLFQRFNQMIDSHYHQHWTVPDYARELHLTESRLTDICRRFANRPPKRLIFDRQLREAKRLLLFSDSAVNEIAWQLGFKDPAYFARFFSRQVGCSPSSYRAQKVPVS | not soluble |
| MGSDKIHHHHHHMCRWLAYSGRSVPLEAVLFQPEHSLIDQSLNARLGHTTTNGDGFGVGWYGRHSEVPFRYRCLHPAWSDTNLRETARAVRAPLFVAHVRAATGTPTQETNCHPFRFGRWLFVHNGLIREFPLLRRDLMMAVSPQLFRWIEGSTDSEIMFFLALTFGLERDPRAALEQMVGLIEEVGHRYDVEHPINMTVCVTDGQQIVAVRYSSEADSRSLFHSTSFRQLRELYPDDPRIIAAGDDAFLVLSEPLIDVQGVWQEIPEATILVGRAGVIDYSRFTPRMPELSS | not soluble |
| MGSDKIHHHHHHMCRWLAYTGNPLQLETVLFNARHSLIDQSLHSRLGYTTTNGDGFGIGWYGEPTDIPFRYRCIQPAWSDRNLREAARAIRAPLFVAHVRSATDTPSQETNCHPFRHGRWLFAHNGLIRNYPAVRRDLMVMIDPDLFPSIEGSTDSEVMFFLALTFGLELAPVTALERMVAFVEETGRKHGVDEPLNMTVCVTDGEQIVAVRYSSEGQSRSLFHSTSFHHLHELYPDDPRIAAAGENAFLVLSEPLADLPGWWEEIPESTVVVARGGQIEQYPFRPQSA | not soluble |
| MGSDKIHHHHHHMCYNNSMNERYIRFNPNIAKQKPSNKDKCPFCDKSQLGKILDVKDDMIWVENKYPTLEETYQTLVIESNDHNGDISVYSESKMRQLLDYLLSKWQLMEESGHYRSVVLYRNFGPLSGGSLRHPHSQIVGLKNVDAYETLNLDWFDGIEVCSETSQQAEISIANRPMLDFTEFTIKVSKLENAILIADSLPILCHYILNEFLGGRCKSYNLFFYKHDGGLICKIVPRFIVSPYQIGYAIHQVNLPDELEKIKEALRAKYYL | not soluble |
| MGSDKIHHHHHHMDADELELKGHLKKLKKEELLRRKQLKESNLQKRELEYNNASKNTSIYISGLPTDKTTKEGLTEQFCKYGMIRTNRDGEPLCKLYVNDKGAFKGDALITYSKEESVTLAIEMMNESIFLGKQIRVERAQFQNKEGDNMHGKENDLKEFNGPEPPIKRLKKAKSEGEGEVIDYNDDESLAKADRTVIFANVFNIYKSYTNDDINDIQEDLLEGCEEIGQVDSISVSPNKGEATVVFKNNKVALQCCKIMTGRYFDGQKLLAFISGDENTSSTSDKNEDSEVEDDLI | not soluble |
| MGSDKIHHHHHHMDAIVNTVNCVGVMGKGIALQFKNKWPANYSAYEAACKAKQVRPGTMFVFDSGGLVKPNYIINFPTKDHWRGKSRVEFIRDGLVDLVAQVKRLGIRSIAIPPLGCGNGGLEWDEVRPLIEQAFAVLPDVEVRLFAPAGAPDPKSMEVKTSRPKMTAGRAAILKVLDTYRSLEYGLSRIEVQKLAYFLQEAGESLSLSFVKNQYGPYSDQLRHALNRMEGHFIRGLGDGVVDAEIEPLEDALAEAEQYVSASGHAALARHVERVANLIEGFQTPYGMELLATVHWVATHEPTAHSFDQVVSAVHAWNERKARIMQPAHVRAAWSRLDAQGWL | not soluble |
| MGSDKIHHHHHHMDDIPALMRSLQLKRKPLMVCSGGTTSRCAAEGHWTLDLRQSCRQIHFDPSTQHVEIGAGQTMESLLRELAKHGRSFPTGLSGLPGLGYILNGGISPLSRSQGLAIDQILEIKGVWGDGESFVLSKPEAACCSEDQLAWRGLCGAAPFLAVITDLKLQTHLLQPLRIWQSNLTFEQLLELIHQAESWPDSLSLQWIWGDEVHAYGVLLSADAAAVATFNQLQKTTLCTNVVEIDDVAGIHELPPFALPVVSNAAIGRCHSEVVALLGPAWGSGCQGVITALAELMAERPDPRCSLAVQQLGGVASRQRKDVSSLIHREAIWKPWITAAWPAGDSHIRALSLNWLEKVWATLEPYCAGVHLAQMHPHLPWHQRELKAAFGEWLPGLQELKARHDPNGILPSL | not soluble |
| MGSDKIHHHHHHMDFIEVYPNALPDDLCDRLILAFDQHTGVVDGQTGNGVDPEKKISRDLTLDNFDDMQPLKNELLSYTLKGVVDYFTQYSMALMGAVAVSVSDAEGKPTTLTPSNFAQLGLPKVDGLVKYLYRSGSINIQKYQRNKGGYPHWHSEQFPQSGHNEALHRVVFYMFYLNDVEEGGETEFYYQRRKISPKKGTMVIAPAGFTHSHRGNMPISNDKYIATSWVMFNRAEQLYTVYA | not soluble |
| MGSDKIHHHHHHMDFKQVQQSFIDYIRDPQRPVPVGVPLARMQVYRELFFNNVMGFVSNGFPVLKSLYTDEQWQTLVQAFFGQHDCKSPVFIDIAGEFLDFLQFQYSPMDSDPPFMLELAHYEWLELRVATAQQDDRQELIGKEDITYRNLCLAATASVAQYQYPVQQIRPDYRPSEPLVNPVYFCLYQDEVGEVGFLQLTPLSAQVLGYLTEKGQGTFDELTQWLAATYPQMPTETLTQGCLALLEQLATKSIVRGV | not soluble |
| MGSDKIHHHHHHMDIAMVYSDRLLSPQIPPSRKLRVLKEVEIRLIEGEEQEVEELIMQIHSEEYFSRIRSHPFFENAVENVKCILTGLKALKDYDAVIVPVTTAGHLAEQSRMRGYCLLNGLAIAVKAAESYGRIAVIETDAHHGKASIVSEERATFFCIGRRECEISEDLRCVLGRRMGKDYVKSFEELVERVKEYDPNLVIWYLGLDLDSREYAEMPFGREEWEKLVKNFMKMAEGRKSLIMLALGLRDDVLKDIVGLFAGW | not soluble |
| MGSDKIHHHHHHMDIISSFGFGRKHIAPILSKLMMLYPKLQIHFDTIDNTKDLIQHSIDLDIRIGNEIAPNMIAKKLASNFRILCASPSYLLKHGVPDSIEDLQTHDCLTISERDQSSVLWKFRHASEDVSVHIKPRFVSNNGEIIHQLAIEGHGIIFRSIWDVADELITGQLQHILPEYWQDADVWAVYPSRLKSSSKLQTCILFIQNELLNRLQHVQNLSRGQLISPAVKREPPPEKVFL | not soluble |
| MGSDKIHHHHHHMDKMLYTAASGASRIMEAQSIRANNLANAETTGFKADLERVKSMALPGVEASLSTRVLVQTQSNGFSQQSGEMNHTGRNLDMAIRDRGLFTVMVDGGEAYTRAGAMIADAEGQLTVNGRPVLGIDGPMVLPEHKDLFVGEDGTISVLPAEGGVIQEVGRLKMVNPELNELTKGADGLLYPIAAGVLAADDGVQVDSGYLESSNVQAVSELIASMDLSRQFEIQVKLMKSAEKLAEAGNRLIRNA | not soluble |
| MGSDKIHHHHHHMDLSKIASTINMRYYSQLGGFQVGGAVSGLDTQSIINAILEAESQPLQNLTEKYEKYELMQEAYTEVKTKLREFRDLVYSFKLQSTVVQKTAVSSSSLLSAEASSVAVTGVYHVKIVQTATYTTLAGASEVVPPPDSTKTFGELDYMYTPQEGTVRLYNNETGNYVEVQVLSTDTIDDIVSKLNSALSSAGITGSVSYDTSTGKISITSDKNFSLVDITGNFTKVFHLDEASLNYSGGNYSFTSTASVSGLSTAKTLQQIATYTSKTIISGKVKINGVEIDVDQNDTLSSLIEKINDSEAGVTASYDYHANRVVIISKTSGPEAITLEDTYGTGLFSLLGIENHSLYVGQKAHLQISMDGTNWADVYSDTNDVEYNGVTFHISGMTSETITVDVRVDTDAIVEKIKEFVDKWNETMDYLNEKLTEESITDKDEEEMTEEEKMKGVLKGDDLLEEIFSRLRGFITYKAEGDINYLWELGISTGDIGTGYENMMKGHLEVDEEKLKQIVEEDPNKVWEFFGGENGFATQLDDYLWELVKFNGRIDQVAGISGRIEREQRFLATQIASWIERLSKREQELWRKFSVMEEVISQLQSQGSWISQALQGSSNK | not soluble |
| MGSDKIHHHHHHMDNEIVSSWHQGELAVQQRAGTDERMAEIGPKFIREFMPQQHRDFFQSLSMIFVGYTDHCSNAYASVLFGAPGFIQSPTETELVINTQSTIGDFIIEDLREGDHIGLVGIEFDTKRRNRINGVITDINQKNIKVKVLQSYGNCPKYIQPKEFAPNRSYSEFTTVSLDQLSQKYREIISSADTFFIASSFDDGQKFRNRGVDVSHRGGEVGFVSINAAGQLLVDDYVGNGFFNTLGNLLENPIASLLFCDWQTGHVLKIAVSSEILWHDEQQDSVVLAAGKVKRSLCFTPIKIEQFNNGLAYIQQF | not soluble |
| MGSDKIHHHHHHMDPVLELEAVSKCFQRYRHPRDRLWELLFPRTSRVQTFQALENISLQVEPGRTIGIVGRNGAGKSTLLQIVAGTLTPSSGRVKVRGRVAALLELGSGFNPEFTGRQNVFFNGQLLGLTPQEIRDRFAEIVAFAEIGDFLDQPVKTYSSGMMVRLAFSVVAHLDPELLIVDEALAVGDARFQARCMKRIRELKEKGTTILFVSHDANAVRMLCDEAVLLEGGRILERGNPNWVLNHYNQLLGLEDRDNYRPLAQETQQAGLCYVEQAAHPNRHGNGRATISKAWLSGSGLQADKVLQGGDLTLTFQLQIHQDLPDALIGLSIRNLYGVVIYGTNNLQLEKRPKALAAGSSPELSFRWRNQLNAGVYTISIAITSEDCEVYDWIDEALVFEVVNDRFCEGVIDLGADLHWISEFSSPAAIATSRDSLGSTSPSS | not soluble |
| MGSDKIHHHHHHMDSRDMQAIGLCRFSYPAIGGFQVEHETIEERISYLYAEDRLEERFQLLETVALPCLREQTDQNFELIVVIGDTLPKRHGDRLHDLTSDMPQVRIVVEPPRPQRELMKELLNSARTDPSKPCLQFRYDDDDAVSVDFIERFRNALNDCRGLVTTNRTVAVDFNRGYVAELGADGIAATETVRTLYVASLGMYVKGGCRLTIMNFAHEKIGRFMPVISISDVPMWVRSHNGFNDSRQKKVKPVPVVPLTEDQKAEFAARFAIREDHVKRVFSGG | not soluble |
